Reference: article PMC1847684, “Isolation and functional characterization of a cDNA coding a hydroxycinnamoyltransferase involved in phenylpropanoid biosynthesis in Cynara cardunculus L” (BMC Plant Biology, 2007)

Experiments:
Assay in all cases: HPLC product assay, Lineweaver-Burk
Format in all cases: biochemical, Cynara cardunculus
[1] = substrate: O=C(O)[C@]1(O)C[C@@H](O)[C@@H](O)[C@H](O)C1; conditions: 300 μM p-coumaroyl-CoA as donor, sodium phosphate pH 7.5, 1 mM DTT, 30 C
Excerpt: (§1) HPLC product assay, Lineweaver-Burk on HCT (globe artichoke hydroxycinnamoyltransferase; CcHCT)

[2] = substrate: CC(C)(COP(=O)(O)OP(=O)(O)OC[C@H]1O[C@@H](n2cnc3c(N)ncnc32)[C@H](O)[C@@H]1OP(=O)(O)O)[C@@H](O)C(=O)NCCC(=O)NCCSC(=O)/C=C/c1ccc(O)cc1; conditions: 20 mM quinate as acceptor, sodium phosphate pH 7.5, 1 mM DTT, 30 C, recombinant bacterial extract (discussion says purified, no purification described)
Excerpt: as §1

[3] = substrate: CC(C)(COP(=O)(O)OP(=O)(O)OC[C@H]1O[C@@H](n2cnc3c(N)ncnc32)[C@H](O)[C@@H]1OP(=O)(O)O)[C@@H](O)C(=O)NCCC(=O)NCCSC(=O)/C=C/c1ccc(O)c(O)c1; conditions: 20 mM quinate as acceptor, sodium phosphate pH 7.5, 1 mM DTT, 30 C
Excerpt: as §1

B1: HCT (globe artichoke hydroxycinnamoyltransferase; CcHCT) (Cynara cardunculus) (protein)
chain: MKIEVRESTMVRPAEETPRINLWNSNVDLVVPNFHTPSVYFYRPNGAANFFDPKVMKDALSRALVPFYPMGGRLKRDEDGRIEIDCQGQGVLFVEAESDGVIDDFGDFAPTLELRKLIPAVDYTLGIESYSLLVLQVTYFKCGGVSLGVGMQHHAADGASGLHFINTWSDLARGLDLAVPPFIDRTLLRSRDPPQPAFDHIEYQPAPPMKTAPTPTPTDDESVPETTVSIFKLTRDQVNALKGKSKEDGNTVNYSSYEMLSGHVWRCVCKARGLPDDQDTKLYIATDGRARLRPSLPRGYFGNVIFTTTPIAVAGDLQSKPTWYAASKIHDALARMDDDYLKSALDYLELQPDLKALVRGAHTFKCPNLGITSWARLPIHDADFGWGRPIFMGPGGIAYEGLSFVLPSPINDGSLSIVISLQAEHMKLFSKFLYDI
notes: full-length ORF (1308 bp, 436 residues printed, ~50 kDa), pET3a NdeI/BamHI, no tag mentioned, E. coli BL21(DE3) pLysE at 28 C
Km [1]: 9200 ± 5600 µM
Vmax [1]: 0.126 µmol/min/mg
Vmax/Km [1]: 12 µL/min/mg
Km [2]: 53.0 ± 13.0 µM
Vmax [2]: 0.132 µmol/min/mg
Vmax/Km [2]: 2460 µL/min/mg
Km [3]: 61.75 ± 0.004 µM
Vmax [3]: 0.0402 µmol/min/mg
Vmax/Km [3]: 600 µL/min/mg
